# Results reported in PMC4245977 (Biochemistry, 2014).
# Molecular target: the molecule itself
# Assay: crystal structure
protein,measurement,value
"AACC (C136A/C141A) double mutant of the Tn501 MerA (mercuric reductase) catalytic core (domain or fragment, Pseudomonas aeruginosa (Tn501)) EPPVQVAVIGSGGAAMAAALKAVEQGAQVTLIERGTIGGTAVNVGAVPSKIMIRAAHIAHLRRESPFDGGIAATVPTIDRSKLLAQQQARVDELRHAKYEGILGGNPAITVVHGEARFKDDQSLTVRLNEGGERVVMFDRCLVATGASPAVPPIPGLKESPYWTSTEALASDTIPERLAVIGSSVVALELAQAFARLGSKVTVLARNTLFFREDPAIGEAVTAAFRAEGIEVLEHTQASQVAHMDGEFVLTTTHGELRADKLLVATGRTPNTRSLALDAAGVTVNAQGAIVIDQGMRTSNPNIYAAGDCTDQPQFVYVAAAAGTRAAINMTGGDAALDLTAMPAVVFTDPQVATVGYSEAEAHHDGIETDSRTLTLDNVPRALANFDTRGFIKLVIEEGSHRLIGVQAVAPEAGELIQTAALAIRNRMTVQELADQLFPYLTMVEGLKLAAQTFNKDVKQLSCCAG",binding result,binds
